Assay results taken from patent publication US20060286032A1, “A radiosotope-chitosan complex for treatment of prostate cancer” (priority 2003, published 2006).
Entries after “also recorded” stand apart in the source; their conditions may differ. Marks after values point to notes of the source that are not given here.

Tests used:
[1] = Autoradiography, complex solution versus ^166Ho(NO3)3.5H2O solution not containing chitosan, injected into the prostate gland; type: in vivo, rats; conditions: for Radioactive concentration, Administration site / Radioactive concentration, End region of femur / Radioactive concentration, Liver / Radioactive concentration, Spine / Radioactive concentration, Kidney / Radioactive concentration, Spleen: 25 μl (about 100 μCi)
Procedure: To investigate advantages of the ^166Ho-chitosan complex, autoradiography was carried out for a group administered with the complex solution and a control group administered with a ^166Ho(NO3)3.5H2O solution not containing chitosan. In the complex solution administration group, 25 μl of the complex solution was administered, which was equal to about 100 μCi. The control group was administered with a ^166Ho(NO3)3.5H2O solution not containing chitosan with the same dosage and radioactive concentration as in the complex solution administration group. This test was carried out according to the same method as in Experimental Example 1, and each test drug was administered to the prostate gland. After 0.5, 2, 6 and 24 hrs, rats were sacrificed and evaluated by autoradiography. The measured radioactive concentrations (% ID/g) in various organs after injection of the complex solution and the ^166Ho(NO3)3.5H2O solution are given in Table 2, below.

[2] = test system: DU-145 carcinoma cell line (hormone-independent prostate carcinoma cell line); assay: Antitumor effect in DU-145 subcutaneous tumor model, intratumoral injection; type: in vivo, nude mice; conditions: for Tumor volume after injection: intratumoral; for Tumor growth inhibition rate: last day of the test (2 wks), tumor volume vs control
Procedure: To investigate the effect of the complex on hormone-independent prostate cancer, a DU-145 carcinoma cell line (hormone-independent prostate carcinoma cell line), which is rarely produces prostate-specific antigen, was transplanted into nude mice and the antitumor effect of the complex was evaluated.
The DU-145 cells were cultured in 10% FBS (fetal bovine serum)-containing F-12K(Kaign's Modification of Ham's F-12 medium) in a 5% CO2 incubator at 37° C., and 2×10^5 cells/0.2 ml/head were subcutaneously transplanted into the lumbar portion of male 6-week nude mice. When the long axis of the tumor was about 1 cm long, the complex solution was intratumorally injected. The administration volume of the test drug was 0.2 ml. The mice were divided into four groups: a control group (no treatment); two administration groups administered with the complex solution at doses of 10 mCi and 20 mCi per 1 cm^3 tumor; and another administration group administered with a non-radioactive complex solution [Holmium-165 (^165Ho)-chitosan complex solution]. Two weeks after administration with the complex solution, the mice were histopathologically examined to evaluate the antitumor effect and toxicity to major organs of the complex.

[3] = test system: AIT carcinoma (androgen-independent carcinoma cell line); assay: Antitumor effect in AIT subcutaneous tumor model; type: in vivo, noble rats; conditions: for Tumor weight: four weeks after administration; for Tumor growth inhibition rate: four weeks, tumor weight vs control
Procedure: To evaluate the effect of the complex on hormone-independent prostate cancer, an AIT carcinoma (androgen-independent carcinoma cell line) was transplanted into noble rats, and the antitumor effect of the complex was examined.
An androgen-independent, prostate carcinoma cell line, AIT, which is derived from noble rats, was cultured in 10% FBS-containing DMEM at 37° under 5% CO2. The cultured carcinoma cells were suspended in sterile physiological saline at a density of 4×10^6 cells/ml, and 2×10^6 cells were subcutaneously transplanted into the lateral abdomen of male 5-week noble rats. When the long axis of the tumor was about 1 cm long (in this test, 14 days after transplantation), the rats were grouped according to the tumor mass. The kit prepared in Example 2 was used as a test drug, and was administered at the same dose as in Experimental Example 5, that is, 0.2 ml. The rats were divided into four groups: a control group (no treatment); two administration groups administered with the complex solution at 10 mCi and 20 mCi per 1 cm^3 tumor; and another administration group administered with a non-radioactive complex solution (Holmium-165 (^165Ho)-chitosan complex solution). Four weeks after administration with the complex solution, tumors were excised from the rats, and tumor growth inhibition rates were measured by weighing the tumors.

[4] = test system: AIT prostate carcinoma cells; assay: Antitumor effect in orthotopic tumor model, AIT transplanted into the prostate gland; type: in vivo, noble rats
Procedure: In addition to the subcutaneous tumor model tested in Experimental Example 6, the antitumor effect and side effects of the complex solution was examined in an orthotopic tumor model where AIT prostate carcinoma cells had been directly transplanted into the prostate gland. AIT cells were cultured in 10% FBS-containing DMEM at 37° under 5% CO2. The cultured carcinoma cells were suspended in sterile physiological saline at a density of 2×10^6 cells/0.05 ml. After noble rats were anesthetized with fentanyl and the abdomen was opened, 2×10^6 cells per rat were transplanted into the prostate gland of the rats. Seven days after carcinoma transplantation, the rats were randomly allocated. The kit prepared in Example 2 was used as a test drug, and 0.05 ml of the kit was administered. The rats were divided into four groups: a control group (no treatment); two administration groups administered with 0.5 mCi and 1.0 mCi of the complex solution; and another administration group administered with a non-radioactive complex solution (Holmium-165 (^165Ho)-chitosan complex solution). Two and four weeks after administration of the complex solution, the rats were sacrificed, and tumors were excised from the rats and weighed.

[5] = test system: AIT tumor transplanted into the prostate gland; assay: Histopathological examination of tumor tissue of rats of the orthotopic model (hematoxylin and eosin); type: in vivo, noble rats
Excerpt: From all rats tested in Experimental Example 7, which were sacrificed on the last day of the test, the heart, lung, liver, kidney, spleen, testes, epididymis, seminal vesicle, bladder, rectum and tumor tissues were excised, embedded in paraffin according to general tissue processing, and sectioned into a thickness of 3 μm. The tissue sections were subjected to double staining with hematoxylin and eosin and histopathologically examined.

[6] = 0.5 mCi, four weeks after administration (FIG. 2 C and D)

For “Holmium-166 (^166Ho)-Chitosan Complex [complex solution]”, the “Radioactive concentration, Administration site” value ([1]; 30 min) was 4149 ± 1563.2 % ID/g, the “Radioactive concentration, End region of femur” value ([1]; 30 min) was 0.04 ± 0.015 % ID/g and the “Radioactive concentration, Liver” value ([1]; 30 min) was 0.01 ± 0.004 % ID/g. The “Radioactive concentration, Spine” value ([1]; 30 min) was 0.01 ± 0.002 % ID/g, the “Radioactive concentration, Administration site” value ([1]; 2 hrs) was 3246 ± 764.0 % ID/g and the “Radioactive concentration, End region of femur” value ([1]; 2 hrs) was 0.07 ± 0.013 % ID/g. The “Radioactive concentration, Liver” value ([1]; 2 hrs) was 0.016 % ID/g, the “Radioactive concentration, Spine” value ([1]; 2 hrs) was 0.02 ± 0.004 % ID/g and the “Radioactive concentration, Administration site” value ([1]; 6 hrs) was 4815 ± 1177.4 % ID/g. The “Radioactive concentration, End region of femur” value ([1]; 6 hrs) was 0.21 ± 0.101 % ID/g, the “Radioactive concentration, Kidney” value ([1]; 6 hrs) was 0.02^b % ID/g and the “Radioactive concentration, Liver” value ([1]; 6 hrs) was 0.04 ± 0.024 % ID/g. For the same substance, the “Radioactive concentration, Spine” value ([1]; 6 hrs) was 0.05 ± 0.024 % ID/g, the “Radioactive concentration, Spleen” value ([1]; 6 hrs) was 0.03 ± 0.027 % ID/g and the “Radioactive concentration, Administration site” value ([1]; 24 hrs) was 3998 ± 705.1 % ID/g. For the same substance, the “Radioactive concentration, End region of femur” value ([1]; 24 hrs) was 0.55 ± 0.324 % ID/g, the “Radioactive concentration, Kidney” value ([1]; 24 hrs) was 0.03 ± 0.016 % ID/g and the “Radioactive concentration, Liver” value ([1]; 24 hrs) was 0.04 ± 0.004 % ID/g. For the same substance, the “Radioactive concentration, Spine” value ([1]; 24 hrs) was 0.14 ± 0.070 % ID/g, the “Radioactive concentration, Spleen” value ([1]; 24 hrs) was 0.04 ± 0.010 % ID/g and the “Radioactivity retained in the administration site, the prostate gland” value ([1]; 24 hrs after being administered) was ~90%. For the same substance, the “Tumor volume after injection” value ([2]; 10 mCi per 1 cm^3 tumor, 1 wk) was 0.48 ± 0.35 cm^3, the “Tumor volume after injection” value ([2]; 10 mCi per 1 cm^3 tumor, 2 wks) was 0.32 ± 0.20* cm^3 and the “Tumor growth inhibition rate” value ([2]; 10 mCi per 1 cm^3 tumor) was 95.1%. For the same substance, the “Tumor volume after injection” value ([2]; 20 mCi per 1 cm^3 tumor, 1 wk) was 0.28 ± 0.04 cm^3, the “Tumor volume after injection” value ([2]; 20 mCi per 1 cm^3 tumor, 2 wks) was 0.09 ± 0.24* cm^3 and the “Tumor growth inhibition rate” value ([2]; 20 mCi per 1 cm^3 tumor) was 98.6%. For the same substance, the “Tumor growth inhibition rate” value ([2]; 20 mCi per 1 cm^3 tumor, listed as Complex) was 98.6%, the “Inhibitory activity against the tumor growth” value ([2]; subcutaneous tumor model) was “higher than 95%” and the Tumor weight ([3]; 10 mCi per 1 cm^3 tumor) was 2.1 ± 0.78 g. For the same substance, the “Tumor growth inhibition rate” value ([3]; 10 mCi per 1 cm^3 tumor) was 90.7%, the Tumor weight ([3]; 20 mCi per 1 cm^3 tumor) was 0.7 ± 0.18 g and the “Tumor growth inhibition rate” value ([3]; 20 mCi per 1 cm^3 tumor) was 96.7%. The “Inhibitory activity against the tumor growth” value ([3]; subcutaneous tumor model) was “higher than 90%”, the Tumor weight ([4]; 0.5 mCi, 2 wks after administration) was 0.45 ± 0.07 g and the Tumor weight ([4]; 0.5 mCi, 4 wks after administration) was 1.58 ± 0.97 g. The Tumor weight ([4]; 1.0 mCi, 2 wks after administration) was 0.49 ± 0.08 g, the Tumor weight ([4]; 1.0 mCi, 4 wks after administration) was 1.09 ± 0.32 g and the “Effect on tumor growth” value ([4]; two weeks after administration, listed as present complex) was “showed an inhibitory effect against the tumor growth; also recorded: the tumor growth was suppressed”. The “Histopathology of the tumor, center of injection site” value [5, 6] was “broad necrosis”, the “Tumor cells in injection site” value [5, 6] was “all of tumor cells in injection site are necrotized” and the “Histopathology of the tumor tissue at the administration site” value ([5]; last day of the test) was “a large necrosis”.
